In PMC3551606:

What follows are substances tested against Drosophila cathepsin B (Drosophila).

| Substance | CTSB activity % (residual activity on ZFR-AMC with 3 µM crammer variant, 75 nM CTSB, pH 5.0, 20°C) |
| --- | --- |
| Drosophila melanogaster crammer, wild type (natural protein) | 14.7% |
| crammer F16A (natural protein) | 34.6% |
| crammer F46A (natural protein) | 41% |
| crammer W9A (natural protein) | 87.8% |
| crammer W53A (natural protein) | 85.2% |
| crammer Y12A (natural protein) | 63% |
| crammer Y20A (natural protein) | 47.8% |
| crammer Y32A (natural protein) | 67.6% |

Target: Drosophila cathepsin B (Drosophila)
Remark: another data set of the same source

| Substance | CTSB activity % (residual activity on ZFR-AMC with 3 µM crammer variant, 75 nM CTSB, pH 5.0, 20°C) |
| --- | --- |
| crammer D6A (natural protein) | 21.1% |
| crammer E8A (natural protein) | 77.7% |
| crammer E24A (natural protein) | 19% |
| crammer E67A (natural protein) | 54.1% |
| crammer K36A (natural protein) | 29% |
| crammer R28A (natural protein) | 89% |
| crammer R29A (natural protein) | 64% |

Target: Drosophila cathepsin B (Drosophila)
Remark: another data set of the same source

| Substance | reduction of CTSB activity at 3 µM crammer variant (text's number; differs from 100 minus the table's cell) |
| --- | --- |
| crammer F16A (natural protein) | 64% |
